The test deals with AF647-labeled cysteine-less BtuCD Q111C reconstituted into nanodiscs (E. coli) (UniProt P06609). In words: FRET or BRET. (In general: In BRET a luciferase serves as donor, and the signal depends on an acceptor being close.)

B1: AF546-labeled BtuF harboring the E202A mutation (natural protein)
chain: APRVITLSPANTELAFAAGITPVGVSSYSDYPPQAQKIEQVSTWQGMNLERIVALKPDLVIAWRGGNAERQVDQLASLGIKVMWVDATSIEQIANALRQLAPWSPQPDKAEQAAQSLLDQYAQLKAQYADKPKKRVFLQFGINPPFTSGKESIQNQVLEVCGGENIFKDSRVPWPQVSRAQVLARSPQAIVITGGPDQIPKIKQYWGEQLKIPVIPLTSDWFERASPRIILAAQQLCNALSQVD
modifications: Alexa Fluor 546 C5 maleimide on the cysteine appended to the C-terminus
In turn, B1 came in with a k fast (double exponential, green emission on addition of BtuCD*) of 0.124 s⁻¹ and a k slow (double exponential, green emission on addition of BtuCD*) of 0.016 s⁻¹.

B2: AlexaFluor 546 (AF546)-labeled E. coli BtuF (natural protein)
chain: APRVITLSPANTELAFAAGITPVGVSSYSDYPPQAQKIEQVSTWQGMNLERIVALKPDLVIAWRGGNAERQVDQLASLGIKVMWVDATSIEQIANALRQLAPWSPQPDKAEQAAQSLLDQYAQLKAQYADKPKKRVFLQFGINPPFTSGKESIQNQVLEVCGGENIFKDSRVPWPQVSREQVLARSPQAIVITGGPDQIPKIKQYWGEQLKIPVIPLTSDWFERASPRIILAAQQLCNALSQVD
modifications: Alexa Fluor 546 C5 maleimide on the cysteine appended to the C-terminus
B2: the k fast (double exponential, with AMPPNP) is 0.108 s⁻¹; the k fast (double exponential; initial single-lobe association) was 0.158 s⁻¹; the k slow (double exponential, with AMPPNP) was found to be 0.009 s⁻¹; the k slow (double exponential; locking) is 0.025 s⁻¹.

Values taken from paper doi:10.1101/2022.12.02.518933.
